Experimental data reported in patent US5851983.
Where two headings read alike, the source gives them in different places.

Legend:
[1] = biological target: Bovine spleen trypsin (Sigma) (bovine) (UniProt P00760)
[2] = biological target: Polymorphonuclear leukocyte elastase from human sputum (EPC Co.; Funakoshi Yakuhin) (human) (UniProt P08246)
[3] = biological target: Bovine spleen trypsin (Sigma) (bovine) (UniProt P00760); remark: listed apart in the source
[4] = biological target: Polymorphonuclear leukocyte elastase from human sputum (EPC Co.; Funakoshi Yakuhin) (human) (UniProt P08246); remark: listed apart in the source
[5] = biological target: Bovine spleen trypsin (Sigma) (bovine) (UniProt P00760); remark: listed apart in the source
[6] = biological target: Polymorphonuclear leukocyte elastase from human sputum (EPC Co.; Funakoshi Yakuhin) (human) (UniProt P08246); remark: listed apart in the source
[7] = biological target: Calf pancreatic trypsin (Sigma) (calf (bovine)) (UniProt P00760)
[8] = biological target: Polymorphonuclear leukocyte elastase from human sputum (EPC Co.; Funakoshi Yakuhin) (human) (UniProt P08246); remark: listed apart in the source
[9] = biological target: Calf pancreatic chymotrypsin (Sigma) (calf (bovine)) (UniProt P00766)
[10] = biological target: Human plasma kallikrein (human) (UniProt P03952)
[11] = biological target: Human plasma plasmin (human) (UniProt P00747)
[12] = biological target: Human plasma thrombin (human) (UniProt P00734)
[13] = biological target: Porcine pancreatic elastase (Sigma) (porcine) (UniProt P00772)
Chain of Porcine pancreatic elastase (Sigma) (porcine) (P00772 27-266): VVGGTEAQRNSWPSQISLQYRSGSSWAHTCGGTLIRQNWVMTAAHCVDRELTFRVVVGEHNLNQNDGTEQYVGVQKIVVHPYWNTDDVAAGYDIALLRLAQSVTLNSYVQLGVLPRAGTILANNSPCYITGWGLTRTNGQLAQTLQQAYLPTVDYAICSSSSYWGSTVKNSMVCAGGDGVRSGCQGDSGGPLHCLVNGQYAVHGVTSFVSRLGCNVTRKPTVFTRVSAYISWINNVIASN

Chain of α1 -AT (Sigma) (P01009 25-418 limits assumed): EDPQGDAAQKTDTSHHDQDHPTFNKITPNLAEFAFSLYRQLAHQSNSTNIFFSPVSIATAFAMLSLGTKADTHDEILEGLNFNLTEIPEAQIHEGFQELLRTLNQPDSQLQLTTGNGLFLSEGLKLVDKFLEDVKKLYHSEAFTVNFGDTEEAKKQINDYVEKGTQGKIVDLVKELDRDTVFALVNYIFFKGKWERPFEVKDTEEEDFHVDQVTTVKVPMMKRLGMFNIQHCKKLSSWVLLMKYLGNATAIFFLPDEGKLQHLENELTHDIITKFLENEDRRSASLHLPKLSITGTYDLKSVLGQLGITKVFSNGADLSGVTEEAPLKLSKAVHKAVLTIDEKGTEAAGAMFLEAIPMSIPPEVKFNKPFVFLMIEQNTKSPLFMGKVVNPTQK
Chain of Human secretory leukoprotease inhibitor (SLPI) (chain): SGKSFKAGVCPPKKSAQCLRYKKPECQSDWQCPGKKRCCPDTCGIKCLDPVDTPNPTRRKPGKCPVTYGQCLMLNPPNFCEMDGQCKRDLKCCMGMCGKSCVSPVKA
Chain of Bovine spleen trypsin (Sigma) (bovine) (P00760 24-246): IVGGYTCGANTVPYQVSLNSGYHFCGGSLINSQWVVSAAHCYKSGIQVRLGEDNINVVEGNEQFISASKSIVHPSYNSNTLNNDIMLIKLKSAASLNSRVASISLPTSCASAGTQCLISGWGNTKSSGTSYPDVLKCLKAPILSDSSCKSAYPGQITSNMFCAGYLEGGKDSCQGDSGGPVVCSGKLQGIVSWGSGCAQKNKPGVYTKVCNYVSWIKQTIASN
Chain of (Arg^59 -Ala^107) SLPI (chain): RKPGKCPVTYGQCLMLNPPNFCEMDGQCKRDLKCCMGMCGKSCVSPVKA
Chain of (Asn^55 -Ala^107) SLPI fragment polypeptide (chain): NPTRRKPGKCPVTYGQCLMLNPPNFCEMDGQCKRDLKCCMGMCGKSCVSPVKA
Chain of Calf pancreatic trypsin (Sigma) (calf (bovine)) (P00760 24-246): as the sequence (P00760 24-246) above
Chain of (Arg^58 -Ala^107) SLPI (chain): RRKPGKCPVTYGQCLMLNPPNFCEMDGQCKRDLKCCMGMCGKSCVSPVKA
Chain of Human plasma plasmin (human) (P00747 97-810 limits assumed): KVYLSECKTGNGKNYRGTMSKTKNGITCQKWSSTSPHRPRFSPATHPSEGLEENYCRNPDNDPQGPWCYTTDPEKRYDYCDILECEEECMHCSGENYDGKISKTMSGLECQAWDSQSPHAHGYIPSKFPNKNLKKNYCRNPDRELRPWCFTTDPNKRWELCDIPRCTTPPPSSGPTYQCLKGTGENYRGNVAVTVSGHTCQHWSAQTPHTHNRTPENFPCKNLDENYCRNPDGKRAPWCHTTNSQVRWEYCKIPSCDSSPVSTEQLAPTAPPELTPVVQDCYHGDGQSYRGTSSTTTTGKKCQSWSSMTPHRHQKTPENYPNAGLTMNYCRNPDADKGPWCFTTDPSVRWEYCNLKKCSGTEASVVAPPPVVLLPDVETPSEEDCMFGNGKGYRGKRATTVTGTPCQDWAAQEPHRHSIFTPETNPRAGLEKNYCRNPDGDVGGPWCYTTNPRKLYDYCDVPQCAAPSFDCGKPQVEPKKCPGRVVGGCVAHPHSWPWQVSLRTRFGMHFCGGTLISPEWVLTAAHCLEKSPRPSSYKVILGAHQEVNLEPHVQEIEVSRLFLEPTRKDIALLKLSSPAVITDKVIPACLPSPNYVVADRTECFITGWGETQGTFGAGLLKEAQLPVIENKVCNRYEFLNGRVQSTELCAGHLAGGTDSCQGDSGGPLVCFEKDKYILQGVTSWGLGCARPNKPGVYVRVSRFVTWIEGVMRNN

(Arg^58 -Ala^107) SLPI
IC50 [1]: 2 µM | IC50 [2]: 0.012 µM

(Arg^59 -Ala^107) SLPI
IC50 Value [3]: 2.5 µM | IC50 Value [4]: 0.014 µM | IC50 [5]: 2 µM | IC50 [6]: 0.012 µM

(Asn^55 -Ala^107) SLPI fragment polypeptide
concentration of inhibitory protein which exhibits a 50% inhibition [7]: 130 nM | concentration of inhibitory protein which exhibits a 50% inhibition [8]: 1 nM

Human secretory leukoprotease inhibitor (SLPI)
IC50 Value [3]: 0.24 µM | IC50 Value [4]: 0.016 µM | IC50 [5]: 0.33 µM | IC50 [6]: 0.013 µM

α1 -AT (Sigma) (from UniProt P01009)
concentration of inhibitory protein which exhibits a 50% inhibition [9]: 2 µM | concentration of inhibitory protein which exhibits a 50% inhibition [7]: 200 nM | concentration of inhibitory protein which exhibits a 50% inhibition [10]: > 2 µM | concentration of inhibitory protein which exhibits a 50% inhibition [11]: > 2 µM | concentration of inhibitory protein which exhibits a 50% inhibition [12]: > 2 µM | concentration of inhibitory protein which exhibits a 50% inhibition [13]: 300 nM
